Our source for the Kd and fold affinity against #32A1 values is patent publication US20150125470A1.

Sequences and labels used below:
B1: rat anti-human Siglec-15 monoclonal antibody #24A3 (antibody, rat IgG2a, V domains shown)
VH: QVQLQQSGAELTKPGSSVKISCKTSGYTFPRYDVSWIKQRPGQALEWIGVIHPGSGGTGYNEKFKAKATLAVDTSSSTAFMQLSSLTPEDTAVYYCARRGLNSGYWFFDFWGPGTLVTVSS
VL: DIVMTQSPTSMSISVGDRVTMNCKASQNVGSNVDWYQQKTGQSPKLLIYESTNRYTGVPDRFTGSGSGTDFTFTISNVQAEDLAVYYCMQSNFFPFTFGSGIKLEIKR
B2: human chimeric antibody of the rat anti-human Siglec-15 monoclonal antibody #24A3 (antibody, human IgG2, V domains shown)
VH: B1 VH
VL: B1 VL
B3: h#24A3-H2/L3 (antibody, human IgG2, kappa, V domains shown)
VH: QVQLVQSGAEVKKPGASVKVSCKASGYTFPRYDVSWVRQAPGQGLEWMGVIHPGSGGTGYNEKFKARVTITADTSTSTAYMELSSLRSEDTAVYYCARRGLNSGYWFFDFWGQGTLVTVSS
VL: DIVMTQSPDSLAVSLGERATINCKASQNVGSNVDWYQQKPGQSPKLLIYESTNRYTGVPDRFTGSGSGTDFTFTISSLQAEDVAVYYCMQSNFFPFTFGQGTKVEIKR
B4: h#24A3-H2/L2 (antibody, human IgG2, kappa, V domains shown)
VH: B3 VH
VL: B3 VL with T63S
B5: h#24A3-H2/L1 (antibody, human IgG2, kappa, V domains shown)
VH: B3 VH
VL: B3 VL with S43P, T63S, F73L
B6: h#24A3-H2c/L2b (antibody, human IgG2, kappa, V domains shown)
VH: B3 VH with M48I, S103K
VL: B3 VL with T63S, F73L
B7: h#24A3-H2e/L2b (antibody, human IgG2, kappa, V domains shown)
VH: B3 VH with A72V, S103K
VL: B3 VL with T63S, F73L
B8: h#24A3-H2d/L1 (antibody, human IgG2, kappa, V domains shown)
VH: B3 VH with V68A, S103K
VL: B3 VL with S43P, T63S, F73L
B9: h#24A3-H2e/L3b (antibody, human IgG2, kappa, V domains shown)
VH: B3 VH with A72V, S103K
VL: B3 VL with F73L
B10: h#24A3-H2e/L1 (antibody, human IgG2, kappa, V domains shown)
VH: B3 VH with A72V, S103K
VL: B3 VL with S43P, T63S, F73L
B11: h#24A3-H2b/L3b (antibody, human IgG2, kappa, V domains shown)
VH: B3 VH with S103K
VL: B3 VL with F73L
B12: h#24A3-H2d/L3b (antibody, human IgG2, kappa, V domains shown)
VH: B3 VH with V68A, S103K
VL: B3 VL with F73L
B13: h#24A3-H2c/L3b (antibody, human IgG2, kappa, V domains shown)
VH: B3 VH with M48I, S103K
VL: B3 VL with F73L
B14: h#24A3-H2c/L1 (antibody, human IgG2, kappa, V domains shown)
VH: B3 VH with M48I, S103K
VL: B3 VL with S43P, T63S, F73L
B15: h#24A3-H2b/L1 (antibody, human IgG2, kappa, V domains shown)
VH: B3 VH with S103K
VL: B3 VL with S43P, T63S, F73L
B16: h#24A3-H2d/L2b (antibody, human IgG2, kappa, V domains shown)
VH: B3 VH with V68A, S103K
VL: B3 VL with T63S, F73L
B17: h#24A3-H2b/L2b (antibody, human IgG2, kappa, V domains shown)
VH: B3 VH with S103K
VL: B3 VL with T63S, F73L

Positions count from the first letter of the chain named.

One assay deals with human Siglec-15 V-set domain (human) (UniProt Q6ZMC9). Put plainly: SPR (Biacore T200), antibody captured via immobilized anti-mouse IgG antibody, antigen as analyte, 1:1 model. A general note: In SPR one partner is held on a chip, and binding of the other changes the refractive index at the surface.
Chain of UniProt Q6ZMC9 (Q6ZMC9 39-165 limits assumed, form in doubt): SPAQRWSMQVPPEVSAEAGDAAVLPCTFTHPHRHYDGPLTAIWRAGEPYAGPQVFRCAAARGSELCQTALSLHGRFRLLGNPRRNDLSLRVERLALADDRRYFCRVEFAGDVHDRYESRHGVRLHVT
Regarding B1, the Kd was found to be 0.07 nM.

For a further assay the target is unchanged. Kind of assay: SPR (Biacore T200), antibody captured via immobilized anti-human IgG antibody, antigen as analyte, 1:1 model.
B2 yielded a Kd of 0.017 nM.

The target is the same in another assay. Kind of assay: SPR (Biacore T200), antibody captured via anti-human IgG, antigen as analyte, same manner as 10-1.
Regarding B3, the Kd is 0.027 nM.

For the molecule B4, the Kd was determined as 0.028 nM. Still for that read-out and setting: under B5 stands 0.031 nM; under B6, 0.013 nM.

Turning to B7, the equilibrium dissociation constant (Kd) is 0.018 nM. On the same count and under the same terms, next, B8: 0.0045 nM; B9: 0.016 nM; B10: 0.0069 nM.

B11 gave a Kd of 0.0077 nM. The same measure, in the same setting: next, B12: 0.0075 nM; B13: 0.015 nM; B14: 0.01 nM. With B15, the dissociation constant (Kd) is 0.0098 nM. On the same count and under the same terms, under B16 stands 0.01 nM; under B17, 0.0085 nM.

For another assay the target is unchanged. Put plainly: SPR (Biacore T200), ratio of KD values, reference rat #32A1.
Regarding B1, the fold affinity against #32A1 turned out to be 2 fold.

The Kd is the equilibrium constant for the complex coming apart.
